{
  "source": "patent US11278600B2",
  "about": "“Human alpha-galactosidase variants” (Codexis, Inc., priority 2014, dated 2022)",
  "format_in_all_cases": "biochemical",
  "key": {"[1]": {"assay": "HTP-analysis of yeast culture supernatants, no challenge (MUGal hydrolysis)", "conditions": "activity of the variant/activity of Rd4BB (SEQ ID NO: 15)", "summary_of_the_method": "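GLA variants expressed in yeast INVSc1, secreted into SD-Ura broth over 66-84 h at 30° C; clarified supernatants tested without challenge. Supernatant mixed with McIlvaine buffer pH 4.8 and 2 mM MUGal (citrate/KCl, pH 4.6), 37° C for 30-180 min, carbonate-quenched, fluorescence Ex 355/Em 448 nm.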"}, "[2]": {"assay": "HTP-analysis of supernatants pretreated with acid (MUGal hydrolysis)", "conditions": "activity of the variant/activity of Rd4BB (SEQ ID NO: 15); challenge at pH 3.7", "summary_of_the_method": "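Fluorescence of MUGal hydrolysis (Ex. 355 nm, Em. 448 nm) is read after sodium carbonate quench. The enzyme source is INVSc1 yeast culture supernatant, first exposed to pH 3.3-4.3 McIlvaine buffer at 37° C. for 1-3 h, then reacted at pH 4.8 for 30-180 minutes.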"}, "[3]": {"assay": "HTP-analysis of supernatants pretreated with base (MUGal hydrolysis)", "conditions": "activity of the variant/activity of Rd4BB (SEQ ID NO: 15); challenge at pH 9.65", "summary_of_the_method": "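GLA variants secreted from yeast INVSc1; culture supernatants pre-incubated with McIlvaine buffer pH 7.0–8.2 or 200 mM bicarbonate pH 9.1–9.7 at 37° C. for 1–18 h. Residual activity: MUGal (4 mM stock) hydrolysis at pH 4.3–4.8, 37° C., 30–180 min, carbonate quench; fluorescence Ex 355/Em 448 nm.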"}},
  "data": [
    {"molecule": "403 (protein, Synthetic Polypeptide sequence of Variant No. 403 of mature Human GLA) LDNGLARTPTMGWLHWERFMCNLDCQEEPDSCISEKLFMEMAERMVSEGWKDAGYEYLCIDDCWMAPQRDSEGRLQADPQRFPHGIRQLANYVHSKGLKLGIYADVGNKTCAGFPGSFGYYDIDAQTFADWGVDLLKFDGCYCDSLENLADGYKHMSLALNRTGRGIVYSCEWPLYMWPFQKPNYTEIRQYCNHWRNFADIDDSWKSIKSILDWTSRNQERIVDVAGPGGWNDPDMLVIGNFGLSWDQQVTQMALWAIMAAPLFMSNDLRHISPQAKALLQDKDVIAINQDPLGKQGYQLRKGDNFEVWERPLSGDAWAVAIINRQEIGGPRSYTIPVASLGKGVACNPACFITQLLPVKRQLGFYNWTSRLKSHINPTGTVLLQLENTMQMSLKDLL", "values": [
      {"measurement": "Relative Activity of GLA Variants After No Challenge (NC)", "setting": "[1]", "result": "+ (0.5 to 1.5 relative activity over Rd4BB (SEQ ID NO: 15))"},
      {"measurement": "Relative Activity of GLA Variants After Challenge at pH 3.7", "setting": "[2]", "result": "+ (0.5 to 1.5 relative activity over Rd4BB (SEQ ID NO: 15))"},
      {"measurement": "Relative Activity of GLA Variants After Challenge at pH 9.65", "setting": "[3]", "result": "+ (0.5 to 1.5 relative activity over Rd4BB (SEQ ID NO: 15))"}
    ]},
    {"molecule": "406 (protein, Synthetic Polypeptide sequence of Variant No. 406 of mature Human GLA) LDNGLARTPTMGWLHWERFMCNLDCQEEPDSCISEKLFMEMAERMVSEGWKDAGYEYLCIDDCWMAPQRDSEGRLQADPQRFPHGIRQLANYVHSKGLKLGIYADVGNKTCAGFPGSFGYYDIDAQTFADWGVDLLKFDGCYCDSLENLADGYKHMSLALNKTGRSIVYSCEWPLYMWPFQKPNYTEIRQYCNHWRNFADIDDSWKSIKSILDWTSRNQERIVDVAGPGGWNDPDMLVIGNFGLSWDQQVTQMALWAIMAAPLFMSNDLRHISPQAKALLQDKDVIAINQDPLGKQGYQLRKGDNFEVWERPLSGDAWAVAIINRQEIGGPRSYTIPVASLGKGVACNPACFITQLLPVKRQLGFYNWTSRLKSHINPTGTVLLQLENTMQMSLKDLL", "values": [
      {"measurement": "Relative Activity of GLA Variants After No Challenge (NC)", "setting": "[1]", "result": "+ (0.5 to 1.5 relative activity over Rd4BB (SEQ ID NO: 15))"},
      {"measurement": "Relative Activity of GLA Variants After Challenge at pH 3.7", "setting": "[2]", "result": "+ (0.5 to 1.5 relative activity over Rd4BB (SEQ ID NO: 15))"},
      {"measurement": "Relative Activity of GLA Variants After Challenge at pH 9.65", "setting": "[3]", "result": "+ (0.5 to 1.5 relative activity over Rd4BB (SEQ ID NO: 15))"}
    ]},
    {"molecule": "409 (protein, Synthetic Polypeptide sequence of Variant No. 409 of mature Human GLA) LDNGLARTPTMGWLHWERFMCNLDCQEEPDSCISEKLFMEMAERMVSEGWKDAGYEYLCIDDCWMAPQRDSEGRLQADPQRFPHGIRQLANYVHSKGLKLGIYADVGNKTCAGFPGSFGYYDIDAQTFADWGVDLLKFDGCYCDSLENLADGYKHMSLALNRTGHSIVYSCEWPLYMWPFQKPNYTEIRQYCNHWRNFADIDDSWKSIKSILDWTSRNQERIVDVAGPGGWNDPDMLVIGNFGLSWDQQVTQMALWAIMAAPLFMSNDLRHISPQAKALLQDKDVIAINQDPLGKQGYQLRKGDNFEVWERPLSGDAWAVAIINRQEIGGPRSYTIPVASLGKGVACNPACFITQLLPVKRQLGFYNWTSRLKSHINPTGTVLLQLENTMQMSLKDLL", "values": [
      {"measurement": "Relative Activity of GLA Variants After No Challenge (NC)", "setting": "[1]", "result": "+ (0.5 to 1.5 relative activity over Rd4BB (SEQ ID NO: 15))"},
      {"measurement": "Relative Activity of GLA Variants After Challenge at pH 3.7", "setting": "[2]", "result": "+ (0.5 to 1.5 relative activity over Rd4BB (SEQ ID NO: 15))"},
      {"measurement": "Relative Activity of GLA Variants After Challenge at pH 9.65", "setting": "[3]", "result": "− (<0.5 relative activity over Rd4BB (SEQ ID NO: 15))"}
    ]},
    {"molecule": "362 (protein, Synthetic Polypeptide sequence of Variant No. 362 of mature Human GLA) LDNGLARTPTMGWLHWERFMCNLDCQEEPDSCISEKLFMEMAECMVSEGWKDAGYEYLCIDDCWMAPQRDSEGRLQADPQRFPHGIRQLANYVHSKGLKLGIYADVGNKTCAGFPGSFGYYDIDAQTFADWGVDLLKFDGCYCDSLENLADGYKHMSLALNRTGRSIVYSCEWPLYMWPFQKPNYTEIRQYCNHWRNFADIDDSWKSIKSILDWTSRNQERIVDVAGPGGWNDPDMLVIGNFGLSWDQQVTQMALWAIMAAPLFMSNDLRHISPQAKALLQDKDVIAINQDPLGKQGYQLRKGDNFEVWERPLSGDAWAVAIINRQEIGGPRSYTIPVASLGKGVACNPACFITQLLPVKRQLGFYNWTSRLKSHINPTGTVLLQLENTMQMSLKDLL", "values": [
      {"measurement": "Relative Activity of GLA Variants After No Challenge (NC)", "setting": "[1]", "result": "+ (0.5 to 1.5 relative activity over Rd4BB (SEQ ID NO: 15))"},
      {"measurement": "Relative Activity of GLA Variants After Challenge at pH 3.7", "setting": "[2]", "result": "+ (0.5 to 1.5 relative activity over Rd4BB (SEQ ID NO: 15))"},
      {"measurement": "Relative Activity of GLA Variants After Challenge at pH 9.65", "setting": "[3]", "result": "+ (0.5 to 1.5 relative activity over Rd4BB (SEQ ID NO: 15))"}
    ]},
    {"molecule": "407 (protein, Synthetic Polypeptide sequence of Variant No. 407 of mature Human GLA) LDNGLARTPTMGWLHWERFMCNLDCQEEPDSCISEKLFMEMAERMVSEGWKDAGYEYLCIDDCWMAPQRDSEGRLQADPQRFPHGIRQLANYVHSKGLKLGIYADVGNKTCAGFPGSFGYYDIDAQTFADWGVDLLKFDGCYCDSLENLADGYKHMSHALNRTGRSIVYSCEWPLYMWPFQKPNYTEIRQYCNHWRNFADIDDSWKSIKSILDWTSRNQERIVDVAGPGGWNDPDMLVIGNFGLSWDQQVTQMALWAIMAAPLFMSNDLRHISPQAKALLQDKDVIAINQDPLGKQGYQLRKGDNFEVWERPLSGDAWAVAIINRQEIGGPRSYTIPVASLGKGVACNPACFITQLLPVKRQLGFYNWTSRLKSHINPTGTVLLQLENTMQMSLKDLL", "values": [
      {"measurement": "Relative Activity of GLA Variants After No Challenge (NC)", "setting": "[1]", "result": "+ (0.5 to 1.5 relative activity over Rd4BB (SEQ ID NO: 15))"},
      {"measurement": "Relative Activity of GLA Variants After Challenge at pH 3.7", "setting": "[2]", "result": "+ (0.5 to 1.5 relative activity over Rd4BB (SEQ ID NO: 15))"},
      {"measurement": "Relative Activity of GLA Variants After Challenge at pH 9.65", "setting": "[3]", "result": "− (<0.5 relative activity over Rd4BB (SEQ ID NO: 15))"}
    ]},
    {"molecule": "405 (protein, Synthetic Polypeptide sequence of Variant No. 405 of mature Human GLA) LDNGLARTPTMGWLHWERFMCNLDCQEEPDSCISEKLFMEMAERMVSEGWKDAGYEYLCIDDCWMAPQRDSEGRLQADPQRFPHGIRQLANYVHSKGLKLGIYADVGNKTCAGFPGSFGYYDIDAQTFADWGVDLLKFDGCYCDSLENLADGYKHMSEALNRTGRSIVYSCEWPLYMWPFQKPNYTEIRQYCNHWRNFADIDDSWKSIKSILDWTSRNQERIVDVAGPGGWNDPDMLVIGNFGLSWDQQVTQMALWAIMAAPLFMSNDLRHISPQAKALLQDKDVIAINQDPLGKQGYQLRKGDNFEVWERPLSGDAWAVAIINRQEIGGPRSYTIPVASLGKGVACNPACFITQLLPVKRQLGFYNWTSRLKSHINPTGTVLLQLENTMQMSLKDLL", "values": [
      {"measurement": "Relative Activity of GLA Variants After No Challenge (NC)", "setting": "[1]", "result": "+ (0.5 to 1.5 relative activity over Rd4BB (SEQ ID NO: 15))"},
      {"measurement": "Relative Activity of GLA Variants After Challenge at pH 3.7", "setting": "[2]", "result": "++ (>1.5 to 2.5 relative activity over Rd4BB (SEQ ID NO: 15))"},
      {"measurement": "Relative Activity of GLA Variants After Challenge at pH 9.65", "setting": "[3]", "result": "+ (0.5 to 1.5 relative activity over Rd4BB (SEQ ID NO: 15))"}
    ]},
    {"molecule": "408 (protein, Synthetic Polypeptide sequence of Variant No. 408 of mature Human GLA) LDNGLARTPTMGWLHWERFMCNLDCQEEPDSCISEKLFMEMAERMVSEGWKDAGYEYLCIDDCWMAPQRDSEGRLQADPQRFPHGIRQLANYVHSKGLKLGIYADVGNKTCAGFPGSFGYYDIDAQTFADWGVDLLKFDGCYCDSLENLADGYKHMSLALNRTGRRIVYSCEWPLYMWPFQKPNYTEIRQYCNHWRNFADIDDSWKSIKSILDWTSRNQERIVDVAGPGGWNDPDMLVIGNFGLSWDQQVTQMALWAIMAAPLFMSNDLRHISPQAKALLQDKDVIAINQDPLGKQGYQLRKGDNFEVWERPLSGDAWAVAIINRQEIGGPRSYTIPVASLGKGVACNPACFITQLLPVKRQLGFYNWTSRLKSHINPTGTVLLQLENTMQMSLKDLL", "values": [
      {"measurement": "Relative Activity of GLA Variants After No Challenge (NC)", "setting": "[1]", "result": "+ (0.5 to 1.5 relative activity over Rd4BB (SEQ ID NO: 15))"},
      {"measurement": "Relative Activity of GLA Variants After Challenge at pH 3.7", "setting": "[2]", "result": "+ (0.5 to 1.5 relative activity over Rd4BB (SEQ ID NO: 15))"},
      {"measurement": "Relative Activity of GLA Variants After Challenge at pH 9.65", "setting": "[3]", "result": "+ (0.5 to 1.5 relative activity over Rd4BB (SEQ ID NO: 15))"}
    ]},
    {"molecule": "404 (protein, Synthetic Polypeptide sequence of Variant No. 404 of mature Human GLA) LDNGLARTPTMGWLHWERFMCNLDCQEEPDSCISEKLFMEMAERMVSEGWKDAGYEYLCIDDCWMAPQRDSEGRLQADPQRFPHGIRQLANYVHSKGLKLGIYADVGNKTCAGFPGSFGYYDIDAQTFADWGVDLLKFDGCYCDSLENLADGYKHMSLALNRTGRFIVYSCEWPLYMWPFQKPNYTEIRQYCNHWRNFADIDDSWKSIKSILDWTSRNQERIVDVAGPGGWNDPDMLVIGNFGLSWDQQVTQMALWAIMAAPLFMSNDLRHISPQAKALLQDKDVIAINQDPLGKQGYQLRKGDNFEVWERPLSGDAWAVAIINRQEIGGPRSYTIPVASLGKGVACNPACFITQLLPVKRQLGFYNWTSRLKSHINPTGTVLLQLENTMQMSLKDLL", "values": [
      {"measurement": "Relative Activity of GLA Variants After No Challenge (NC)", "setting": "[1]", "result": "+ (0.5 to 1.5 relative activity over Rd4BB (SEQ ID NO: 15))"},
      {"measurement": "Relative Activity of GLA Variants After Challenge at pH 3.7", "setting": "[2]", "result": "+ (0.5 to 1.5 relative activity over Rd4BB (SEQ ID NO: 15))"},
      {"measurement": "Relative Activity of GLA Variants After Challenge at pH 9.65", "setting": "[3]", "result": "− (<0.5 relative activity over Rd4BB (SEQ ID NO: 15))"}
    ]}
  ]
}
